Where two headings read alike, the source gives them in different places.

Test [1] has as its target T1, SARS-CoV-1 spike on pseudovirus (SARS-CoV-1, UniProt P59594 14-1255). Kind of test: cell-based or functional assay.
Test [2] concerns the target T2, SARS-CoV-2 spike on pseudovirus or live virus (USA-WA1/2020, WT) (SARS-CoV-2, UniProt P0DTC2 14-1273). Kind of test: cell-based or functional assay.
The target of test [3] is T2, SARS-CoV-2 spike on pseudovirus or live …. The experiment in a line: cell-based or functional assay. This is another data set of the same source.
For test [4] the target is unchanged. The experiment in a line: cell-based or functional assay. The source holds these as a separate data set.
A further test concerns the target SARS-CoV-1 RBD (RBD-1) (SARS-CoV-1). Kind of test: ELISA. (An ELISA detects its analyte on a solid surface through an enzyme-linked reagent.)
Test [5] has as its target SARS-CoV-2 RBD (RBD-2) (SARS-CoV-2). The experiment in a line: ELISA.
The target is the same in test [6]. The experiment in a line: SPR, Fc-captured IgG. For orientation: In SPR one partner is held on a chip, and binding of the other changes the refractive index at the surface.
The target is the same in test [7]. Kind of test: flow, HeLa-ACE2, mAb:RBD=2:1.
In test [8] the target is T1, SARS-CoV-1 spike on pseudovirus. Kind of test: cell-based or functional assay. The source holds these as a separate data set.
In test [9] the target is T2, SARS-CoV-2 spike on pseudovirus or live …. Kind of test: cell-based or functional assay. The source holds these as a separate data set.
Test [10] concerns the target SARS-CoV-2 RBD (RBD-2) (SARS-CoV-2). The experiment in a line: flow, HeLa-ACE2, mAb:RBD=4:1.
The target in test [11] is T3, SARS-CoV-2 RBD (residue 332-527) (SARS-CoV-2, UniProt P0DTC2 332-527).
T3 construct: range 332-527
The experiment in a line: ELISA on truncated S constructs.

Test [12] deals with T1, SARS-CoV-1 spike on pseudovirus. The experiment in a line: cell-based or functional assay. This is another data set of the same source.
Test [13] deals with T2, SARS-CoV-2 spike on pseudovirus or live …. Kind of test: cell-based or functional assay. The source holds these as a separate data set.
For a further test, the target named is human insulin (human, UniProt P01308 25-54; P01308 90-110). The experiment in a line: polyreactivity ELISA.
Sequence of human insulin (P01308 25-54 limits assumed, chain 1 of 2): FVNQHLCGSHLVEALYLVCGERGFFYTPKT
Sequence of human insulin (P01308 90-110 limits assumed, chain 2 of 2): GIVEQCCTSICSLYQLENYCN

B1: L6.dP04E05 (antibody, V domains shown)
VH: EVQLVESGGGLVQPGRSLRLSCAASGFTFDDYAMHWVRQAPGKGLEWVSGISWNSDNIGYADSVKGRFTVSRDNAKNSLYLQMNSLRAEDTALYYCTKDIHRKNDYYDILTGYYRVRYYYYAMDVWGQGTTVTVSS
VL: QSVLTQPPSASGSPGQSVTISCTGTSSDAGGYNYVSWYQQHPGKAPKLMIYEVIKRPSGVPDRFSGSKSGNTASLTVSGLQAEDEADYYCSSFAGTSVVFGGGTKLTVL
notes: human IgG1
As usually defined, the EC50 is the concentration needed to bring the measured effect to its halfway point. With B1, in [1], the “PSV in HeLa-ACE2 cells IC50” value is above 25 mg/L. In [2], the “PSV in HeLa-ACE2 cells IC50” value was 0.006 mg/L, the “live virus IC50 (HeLa-ACE2)” value came out at 0.003 mg/L and the “live virus IC50 (Vero)” value came to 0.006 mg/L. The “neutralization IC50” value in test [3] worked out at 0.00036 mg/L. In addition, the “fold more potent than L12.bP11A6” value in test [4] is around 50 fold. The molecule also displayed an EC50 in the test with SARS-CoV-1 RBD (RBD-1) above 10 mg/L. The molecule also yielded an EC50 with SARS-CoV-2 RBD (RBD-2) [5] of 0.018 mg/L.

B2: L12.cP08D07 (antibody, V domains shown)
VH: QVQLQESGPGLVKPSETLSLTCTVSGGSISSSSYYWGWIRQPPGKGLEWIGSIYYSGSTYYNPSLKSRVTISVDTSKNQFSLKLSSVTAADTAVYYCARQGDCSTTSCAYDYWGQGTLVTVSS
VL: SYELTQPPSVSVSPGQTARITCSGDALPKQYAYWYQQKPGQAPVLVIYKDSERPSGIPERFSGSSSGTTATLTISGVQAEDEADYYCQSADSSGTYLVVFGGGTKLAVL
notes: human IgG1
The Kd is a measure of binding affinity in units of concentration. Higher therefore signals a looser complex. The koff is a measure of how fast the partners let go of each other. By kon is commonly meant the second-order rate constant of association. As for B2, the Kd in the test with SARS-CoV-2 RBD (RBD-2) [6] worked out at 0.0268 µM. In the test with SARS-CoV-2 RBD (RBD-2) [6], this molecule came in with a koff of 0.017 s⁻¹. The kon with SARS-CoV-2 RBD (RBD-2) [6] came out at 636000 M⁻¹ s⁻¹. The “% inhibition of RBD binding to hACE2” value with SARS-CoV-2 RBD (RBD-2) [7] is 3%; in the test with SARS-CoV-2 RBD (RBD-2) [10] it was -3.9%. For the same molecule, the “MFI (RBD binding to cell surface)” value in the test with SARS-CoV-2 RBD (RBD-2) [7] was 10800; with SARS-CoV-2 RBD (RBD-2) [10], 11600. Also, the “PSV neutralization IC50” value in test [8] is above 50 mg/L; in test [9], 1.81 mg/L; in test [12], above 50 mg/L; in test [13] it was 21.9 mg/L. For the same molecule, in [11], the binding result is recorded as “no binding”. Further, the half-maximal effective concentration (EC50) with SARS-CoV-1 RBD (RBD-1) and with SARS-CoV-2 RBD (RBD-2) [5] was above 50 mg/L throughout. The “Maximum Plateau of Neutralization” value in test [13] is 64%.

B3: L6.P4A3.10 (antibody, V domains shown)
VH: QVQLVQSGAEVKKPGSSVKVSCKAPGGTFSSSAISWVRQAPGQGLEWMGGIIPILDITHYAQKFQGRVTITADKSTSTAFMELSSLRSEDTAVYYCALRNQWDLLVYWGQGTLVTVSS
VL: EIVLTQSPGTLSLSPGERATLSCRASQSVSSSYLAWYQQKPGQAPRLLIYGAESRATGIPDRFSGSGSGTDFTLTISRLEPEDFAVYYCQHYGSSVWTFGQGTKLEIK
In the case of B3, the binding result with human insulin is “no binding”.

For the origin of these results see US20230357364A1 (INTERNATIONAL AIDS VACCINE INITIATIVE, published 2023).
